The record followed here is doi:10.1101/2021.03.31.437858.

Assay in all cases: native gel or EMSA
(In general: In EMSA bound probe runs differently from free probe, usually more slowly.)

Assay [1] concerns the target Apoptosis Inducing Factor 1 (AIFM1) (bovine (endogenous in bovine heart mitochondria)).
In assay [2] the target is cytochrome c oxidase (COX), monomeric (bovine (endogenous in bovine heart mitochondria)) (UniProt P00429).
Assay [3] has as its target complex III (CIII) (bovine (endogenous in bovine heart mitochondria)).
Assay [4] addresses complex V (CV) (bovine (endogenous in bovine heart mitochondria)).

UniProt P00429, sequence (P00429 whole entry, looked up): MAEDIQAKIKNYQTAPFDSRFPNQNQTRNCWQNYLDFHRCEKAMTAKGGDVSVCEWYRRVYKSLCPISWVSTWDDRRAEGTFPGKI

The substance “Apoptosis Inducing Factor 1 (AIFM1) (natural protein)” came in with a stoichiometry N in assay [1] of 2. In assay [2], this substance had a percent of monomeric COX engaged in the complex of 10% and a stoichiometry N (AIFM1 per COX monomer) of 2.
With complex III (CIII), the stoichiometry N in assay [3] was 2.
Turning to complex V (CV), the stoichiometry N in assay [4] was determined as 2.

In general, stoichiometry N refers to a count of units in the complex or per binding partner.
